Measurements published in FireProtDB (doi:10.1016/j.jmb.2005.06.006).
Values joined by “and” are separate entries in the source; they are usually repeats but may differ in a detail not shown here. Equal entries are not always repeated.

Conditions: Escherichia coli (strain K12); pH 7.8; 25 °C; Urea; CD; Potassium phosphate 10 mM; transition: 3; whole UniProt chain shown

B1: Tryptophan synthase alpha chain wild type, P0A877 (protein)
chain: MERYESLFAQLKERKEGAFVPFVTLGDPGIEQSLKIIDTLIEAGADALELGIPFSDPLADGPTIQNATLRAFAAGVTPAQCFEMLALIRQKHPTIPIGLLMYANLVFNKGIDEFYAQCEKVGVDSVLVADVPVEESAPFRQAALRHNVAPIFICPPNADDDLLRQIASYGRGYTYLLSRAGVTGAENRAALPLNHLVAKLKEYNAAPPLQGFGISAPDQVKAAIDAGAAGAISGSAIVKIIEQHINEPEKMLAALKVFVQPMKAATRS
denaturant m value: 2.29 kcal/mol/M and 1.2 kcal/mol/M
unfolding free energy: 6.13 kcal/mol and 4.72 kcal/mol
